# Paper PMC8203837, “Optogenetically-induced multimerization of the dopamine transporter increases uptake and trafficking to the plasma membrane” (The Journal of Biological Chemistry, 2021)
# B1: YFP–DAT (dopamine transporter with N-terminal YFP) (natural protein, UniProt Q01959 1-620, looked up)
# chain: MSKSKCSVGLMSSVVAPAKEPNAVGPKEVELILVKEQNGVQLTSSTLTNPRQSPVEAQDRETWGKKIDFLLSVIGFAVDLANVWRFPYLCYKNGGGAFLVPYLLFMVIAGMPLFYMELALGQFNREGAAGVWKICPILKGVGFTVILISLYVGFFYNVIIAWALHYLFSSFTTELPWIHCNNSWNSPNCSDAHPGDSSGDSSGLNDTFGTTPAAEYFERGVLHLHQSHGIDDLGPPRWQLTACLVLVIVLLYFSLWKGVKTSGKVVWITATMPYVVLTALLLRGVTLPGAIDGIRAYLSVDFYRLCEASVWIDAATQVCFSLGVGFGVLIAFSSYNKFTNNCYRDAIVTTSINSLTSFSSGFVVFSFLGYMAQKHSVPIGDVAKDGPGLIFIIYPEAIATLPLSSAWAVVFFIMLLTLGIDSAMGGMESVITGLIDEFQLLHRHRELFTLFIVLATFLLSLFCVTNGGIYVFTLLDHFAAGTSILFGVLIEAIGVAWFYGVGQFSDDIQQMTGQRPSLYWRLCWKLVSPCFLLFVVVVSIVTFRPPHYGAYIFPDWANALGWVIATSSMAMVPIYAAYKFCSLPGSFREKLAYAIAPEKDRELVDRGEVRQFTLRHWLKV
# notes: dopamine transporter (DAT); also called YFPsynDAT; source: HEK293 cells stably expressing YFP–DAT, in or on cells; not shown: YFP, N-terminal, kept
# Experiments:
# [1] = target: Cry2–mCh–DAT, optogenetic fusion chimera of cryptochrome 2 and DAT with an mCherry fluorescent reporter (Arabidopsis | not stated) (UniProt Q01959)
# [2] = target: Cry2–mCh–DAT, optogenetic fusion chimera of cryptochrome 2 and DAT with an mCherry fluorescent reporter (Arabidopsis | not stated) (UniProt Q01959); experiment: cell-surface biotinylation, SDS-PAGE and Western blot; HEK293 cells transfected with Cry2–DAT, kept in the dark (control); sulfo-NHS-SS-biotin at 4 °C, NeutrAvidin beads, 4–15% gradient gel
# [3] = target: the molecule itself; experiment: cross-linking; HEK293 cells stably expressing YFP–DAT, vehicle control; copper phenanthroline (100 μM CuSO4, 400 μM 1,10-phenanthroline) in PBS 10 min at RT, NEM quench, membrane enrichment (Mem-PER Plus), samples not heated, Western blot
# [4] = target: the molecule itself; experiment: cross-linking; as a1, but cells treated with 10 μM METH for 0.5, 2, 10, 30 or 60 min before copper phenanthroline cross-linking
# [5] = target: the molecule itself; experiment: cross-linking; as a1, but cells treated with 10 μM DA for 0.5, 2, 10, 30 or 60 min before copper phenanthroline cross-linking
Molecule,"IDT307 uptake in differentiated SH-SY5Y cells expressing Cry2–DAT, blue light against no blue light [1] [fold]",stoichiometry N [2],stoichiometry N [3],stoichiometry N [4],stoichiometry N [5]
"Cry2–mCh–DAT, optogenetic fusion chimera of cryptochrome 2 and DAT with an mCherry fluorescent reporter (from UniProt Q01959 1-620)",2.5,2,–,–,–
B1,–,–,2,3,4
